Holding throughout (test): EMSA
The target of data set [1] is T1, hZFP57zf3-4E273A (Homo sapiens, UniProt Q9NU63-3 227-287, C232F;E273A).
T1 sequence: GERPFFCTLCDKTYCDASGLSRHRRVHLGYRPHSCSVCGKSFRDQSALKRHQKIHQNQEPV

For the next data set, the target named is T2, hZFP57zf3-4 (C232F) (Homo sapiens, UniProt Q9NU63-3 227-287, C232F).
T2 sequence: T1 sequence with A47E

The next data set addresses T3, hZFP57zf1-4 (Homo sapiens, UniProt Q9NU63-3 172-287).
T3 sequence: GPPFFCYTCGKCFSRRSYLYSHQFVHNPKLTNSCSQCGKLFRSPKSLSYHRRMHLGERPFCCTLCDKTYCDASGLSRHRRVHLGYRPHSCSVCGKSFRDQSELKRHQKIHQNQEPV

Data set [2] deals with T1, hZFP57zf3-4E273A. This is another data set of the same source.

Residue numbers refer to the chain shown, from its start. Where two headings read alike, the source gives them in different places.

B1: TGCmetCGC probe (both strands methylated) (dsDNA)
DNA 1: GTAATATTGCCGCAGTAATA
DNA 2: TATTACTGCGGCAATATTAC
modifications: 5-methylcytosine at C11 of strand 1 and C9 of strand 2
For the molecule B1, the binding result with hZFP57zf3-4E273A [1], in the data set with hZFP57zf3-4 (C232F) and with hZFP57zf1-4 was “binds” throughout.

B2: TGCCGC unmethylated probe (dsDNA)
DNA 1: GTAATATTGCCGCAGTAATA
DNA 2: TATTACTGCGGCAATATTAC
For B2, the binding result in the data set with hZFP57zf3-4E273A [2] was “binds”.

(Values after publication PMC3655262.)
